T1: AXL (Beijing Yiqiao Shenzhou Bio Technology Co., Ltd., 6xHis label, with a molecular weight of 65 Kda) (UniProt P30530 33-449)
T1 construct: Bought protein used as the mobile phase in BIACORE; not shown: 6xHis label
T1 sequence (looked up): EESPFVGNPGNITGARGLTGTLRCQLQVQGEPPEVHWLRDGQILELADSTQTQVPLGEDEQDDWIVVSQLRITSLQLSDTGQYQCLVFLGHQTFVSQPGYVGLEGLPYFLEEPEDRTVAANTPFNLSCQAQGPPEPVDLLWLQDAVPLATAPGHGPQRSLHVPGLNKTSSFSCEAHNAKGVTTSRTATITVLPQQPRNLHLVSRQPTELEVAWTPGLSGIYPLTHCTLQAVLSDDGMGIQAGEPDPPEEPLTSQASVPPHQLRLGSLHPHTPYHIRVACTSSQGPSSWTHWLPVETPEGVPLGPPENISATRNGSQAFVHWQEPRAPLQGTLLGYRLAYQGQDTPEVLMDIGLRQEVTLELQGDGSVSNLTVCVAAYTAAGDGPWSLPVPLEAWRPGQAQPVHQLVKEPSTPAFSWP

T2: BCMA (ACRO Biosystems) (UniProt Q02223 1-54)
T2 sequence (looked up): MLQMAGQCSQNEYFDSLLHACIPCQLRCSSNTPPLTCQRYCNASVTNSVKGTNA

T3: CD38 (Beijing Yiqiao Shenzhou Biotechnology Co., Ltd.) (UniProt P28907 43-300)
T3 sequence (looked up): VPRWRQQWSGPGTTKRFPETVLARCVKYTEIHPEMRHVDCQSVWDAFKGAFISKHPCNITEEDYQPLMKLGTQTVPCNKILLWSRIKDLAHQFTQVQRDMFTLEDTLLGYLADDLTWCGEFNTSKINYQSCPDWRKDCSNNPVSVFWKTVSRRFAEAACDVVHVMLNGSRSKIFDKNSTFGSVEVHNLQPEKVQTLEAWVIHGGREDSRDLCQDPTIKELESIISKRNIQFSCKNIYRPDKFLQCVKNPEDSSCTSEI

T4: TROP2 (Beijing Yiqiao Shenzhou Biotechnology Co., Ltd.) (UniProt P09758 27-274)
T4 sequence (looked up): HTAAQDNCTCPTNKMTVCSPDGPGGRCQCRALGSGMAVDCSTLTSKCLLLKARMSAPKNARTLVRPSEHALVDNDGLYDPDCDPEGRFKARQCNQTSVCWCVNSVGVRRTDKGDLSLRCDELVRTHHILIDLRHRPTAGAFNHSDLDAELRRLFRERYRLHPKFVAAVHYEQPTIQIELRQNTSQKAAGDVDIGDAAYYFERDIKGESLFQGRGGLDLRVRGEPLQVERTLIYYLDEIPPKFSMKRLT

T5: CD19 (Beijing Yiqiao Shenzhou Biotechnology Co., Ltd.) (UniProt P15391 20-291)
T5 sequence (looked up): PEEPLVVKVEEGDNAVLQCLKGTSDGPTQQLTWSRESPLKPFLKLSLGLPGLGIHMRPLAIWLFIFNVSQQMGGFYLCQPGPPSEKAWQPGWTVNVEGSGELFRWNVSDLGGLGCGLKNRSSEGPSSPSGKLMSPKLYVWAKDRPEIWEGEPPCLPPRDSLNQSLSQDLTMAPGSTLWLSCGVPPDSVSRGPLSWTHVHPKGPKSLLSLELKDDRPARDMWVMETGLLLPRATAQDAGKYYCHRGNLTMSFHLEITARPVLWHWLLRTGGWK

T6: Gas6 (R&D) (UniProt Q14393 49-678, limits assumed)
T6 sequence (looked up): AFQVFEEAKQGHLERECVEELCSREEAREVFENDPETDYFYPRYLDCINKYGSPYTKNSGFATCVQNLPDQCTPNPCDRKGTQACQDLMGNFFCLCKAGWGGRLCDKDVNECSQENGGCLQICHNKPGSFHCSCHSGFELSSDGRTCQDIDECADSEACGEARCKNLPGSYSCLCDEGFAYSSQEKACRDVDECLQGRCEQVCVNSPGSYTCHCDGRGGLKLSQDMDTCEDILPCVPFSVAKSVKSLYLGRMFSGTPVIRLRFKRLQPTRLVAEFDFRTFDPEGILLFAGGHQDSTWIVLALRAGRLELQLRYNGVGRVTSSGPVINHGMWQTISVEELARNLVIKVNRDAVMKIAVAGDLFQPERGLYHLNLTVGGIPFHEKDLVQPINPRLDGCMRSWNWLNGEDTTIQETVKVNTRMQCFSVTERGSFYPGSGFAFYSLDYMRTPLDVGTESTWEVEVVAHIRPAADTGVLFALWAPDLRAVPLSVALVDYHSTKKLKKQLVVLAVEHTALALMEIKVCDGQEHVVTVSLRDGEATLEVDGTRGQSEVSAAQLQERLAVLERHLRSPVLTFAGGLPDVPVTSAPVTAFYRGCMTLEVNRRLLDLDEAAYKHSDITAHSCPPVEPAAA

T7: AXL on the surface of human tumor cells (human, UniProt P30530 26-894)
T7 sequence: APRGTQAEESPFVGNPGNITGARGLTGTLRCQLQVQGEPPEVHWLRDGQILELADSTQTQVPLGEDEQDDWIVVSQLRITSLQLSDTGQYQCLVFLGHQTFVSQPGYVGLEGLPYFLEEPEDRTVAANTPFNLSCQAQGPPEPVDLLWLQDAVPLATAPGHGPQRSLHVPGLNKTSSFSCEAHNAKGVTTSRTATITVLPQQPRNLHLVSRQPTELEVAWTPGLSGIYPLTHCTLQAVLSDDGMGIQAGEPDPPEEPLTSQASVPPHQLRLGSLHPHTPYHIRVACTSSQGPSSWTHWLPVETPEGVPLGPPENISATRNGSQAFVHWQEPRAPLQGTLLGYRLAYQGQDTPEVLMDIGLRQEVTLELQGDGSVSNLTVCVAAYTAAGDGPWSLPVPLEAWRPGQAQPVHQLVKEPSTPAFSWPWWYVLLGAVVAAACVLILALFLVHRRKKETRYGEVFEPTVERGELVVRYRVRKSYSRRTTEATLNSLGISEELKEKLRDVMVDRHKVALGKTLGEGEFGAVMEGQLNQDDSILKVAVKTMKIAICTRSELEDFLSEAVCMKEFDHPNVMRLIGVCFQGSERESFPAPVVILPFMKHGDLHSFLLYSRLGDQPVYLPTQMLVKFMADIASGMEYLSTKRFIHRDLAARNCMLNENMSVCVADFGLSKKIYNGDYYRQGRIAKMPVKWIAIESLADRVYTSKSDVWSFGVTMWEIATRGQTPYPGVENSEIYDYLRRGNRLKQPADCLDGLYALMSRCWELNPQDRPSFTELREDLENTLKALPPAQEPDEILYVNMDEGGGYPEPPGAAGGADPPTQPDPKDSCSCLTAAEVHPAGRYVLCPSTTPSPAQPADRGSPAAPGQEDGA


Assays:
[1] = target: T1, AXL (Beijing Yiqiao Shenzhou Bio …); assay: SPR (BIACORE), C6G12 captured by anti-human IgG-Fc antibody, AXL-His as mobile phase
Method: The antibody affinity was analyzed by BIACORE biomacromolecule interaction analyzer (GE Company). The anti-human IgG-Fc antibody (purchased from Abcam) was coupled to the chip, and used to capture the C6G12 antibody with an antibody concentration set as 0.5 μg/mL and an injection time of 60 seconds. AXL (Beijing Yiqiao Shenzhou Bio Technology Co., Ltd., 6×His label, with a molecular weight of 65 Kda) was taken as the mobile phase, with 6 concentration gradients (1, 0.4, 0.16, 0.064, 0.0256, 0.01024 μg/mL), a binding time of 180 seconds, and a dissociation time of 1200 seconds.

BCMA (ACRO Biosystems) = target: T2, BCMA (ACRO Biosystems); assay: ELISA, protein coated at 1 ug/ml, OD 450 nm
Method: (§1) Milk (Beijing Bomed Biotechnology Co., Ltd.), BSA (BOVOGEN), CD19 (Beijing Yiqiao Shenzhou Biotechnology Co., Ltd.), TROP2 (Beijing Yiqiao Shenzhou Biotechnology Co., Ltd.), BCMA (ACRO Biosystems), CD47 (Beijing Magpel Biotechnology Co., Ltd.), CD38 (Beijing Yiqiao Shenzhou Biotechnology Co., Ltd.), Gas6 (R&D) and each protein and AXL (ACRO Biosystems) were coated with ELISA plates at 1 μg/ml at 4° C. overnight, respectively. After washing with PBST, 10% fetal bovine serum was added and blocked at 37° C. for 1 hour. The C6G12 antibody prepared in Example 3 was added and reacted at 37° C. for 1 hour. After washing with PBST, horseradish peroxidase labeled goat anti-human IgG secondary antibody (GOAT Anti human (HRP), Thermo Fisher Scientific, #31412) was added and reacted at room temperature for 30 minutes. The plates were repeatedly washed with PBST for 5 times, and dried the residual droplets as possible on absorbent paper. […] (eBioscience, #85-00-420) was added and stood at room temperature (20±5 ) in the dark for 1.5 minutes. […] stop solution was added to each well to stop the substrate reaction. The OD value was read with a microplate reader at 450 nm. The binding abilities of antibodies and proteins were analyzed.

[2] = target: T3, CD38 (Beijing Yiqiao Shenzhou …); assay: ELISA, protein coated at 1 ug/ml, OD 450 nm
Method: as §1

[3] = target: T4, TROP2 (Beijing Yiqiao Shenzhou …); assay: ELISA, protein coated at 1 ug/ml, OD 450 nm
Method: as §1

[4] = target: CD47 (Beijing Magpel Biotechnology Co., Ltd.) (UniProt Q08722 19-139, limits assumed); assay: ELISA, protein coated at 1 ug/ml, OD 450 nm
Method: as §1

[5] = target: T5, CD19 (Beijing Yiqiao Shenzhou …); assay: ELISA, protein coated at 1 ug/ml, OD 450 nm
Method: as §1

Gas6 (R&D) = target: T6, Gas6 (R&D); assay: ELISA, protein coated at 1 ug/ml, OD 450 nm
Method: as §1

BSA (BOVOGEN) = target: T8, BSA (BOVOGEN) (UniProt P02769 25-607); assay: ELISA, protein coated at 1 ug/ml, OD 450 nm
T8 construct: Specificity control
Method: as §1

[6] = target: T9, AXL-Fc (fusion protein of human AXL protein extracellular domain-human IgG1 Fc) (human); assay: ELISA, AXL-Fc coated at 1 ug/ml, anti-human Fab-HRP detection
T9 construct: Expressed in CHO-K1 cells
Method: The AXL-Fc prepared in Example 1 was coated on the ELISA plate at 1 μg/ml at 4° C. overnight. After washing with PBST, 10% fetal bovine serum was added and blocked at 37° C. for 1 hour. Different concentrations of the C6G12 antibody prepared in Example 3 were added and reacted at 37° C. for 1 hour. After washing with PBST, horseradish peroxidase-labeled goat anti-human Fab secondary antibody (Goat Anti-human IgG(Fab′)2 (HRP), Abcam) was added and reacted at 37° C. for 30 minutes. The plate was repeatedly washed with PBST for 5 times, and dried to remove residual droplets as possible by absorbent paper. 100 μl of TMB (eBioscience) was added to each well, and stood at room temperature (20±5° C.) in the dark for 1.5 minutes. 100 μl of 2N H₂SO₄ stop solution was added to each well to stop the substrate reaction. The OD value was read with a microplate reader at 450 nm. The binding ability of the C6G12 antibody to AXL-Fc was analyzed.

[7] = target: T7, AXL on the surface of human tumor cells; assay: cell-based or functional assay
[8] = target: T9, AXL-Fc (fusion protein of human AXL …); assay: ELISA, AXL-Fc coated at 1 ug/ml, anti-mouse IgG-HRP detection
Method: The AXL-Fc prepared in Example 1 was coated on the ELISA plate at 1 μg/ml at 4° C. overnight. After washing with PBST, 10% fetal bovine serum was added and blocked at 37° C. for 1 hour. Different concentrations of the 6G12 antibodies were added and reacted at 37° C. for 1 hour. After washing with PBST, horseradish peroxidase-labeled goat anti-mouse secondary antibody (Goat Anti-mouse IgGHRP, Abcam) was added and reacted at 37° C. for 30 minutes. The plate was repeatedly washed with PBST for 5 times, and dried to remove residual droplets as possible by absorbent paper. 100 μl of TMB (eBioscience) was added into each well, and stood at room temperature (20±5 ) in the dark for 1.5 minutes. 100 μl of 2N H₂SO₄ stop solution was added to each well to stop the substrate reaction. The OD value was read with a microplate reader at 450 nm. The binding ability of the antibody to AXL-Fc was analyzed.

Sequence of CD47 (Beijing Magpel Biotechnology Co., Ltd.) (Q08722 19-139 limits assumed): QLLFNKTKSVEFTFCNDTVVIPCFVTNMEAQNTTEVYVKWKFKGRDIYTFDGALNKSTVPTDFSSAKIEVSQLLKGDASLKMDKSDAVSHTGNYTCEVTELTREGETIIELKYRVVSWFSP
T8 sequence (P02769 25-607 limits assumed): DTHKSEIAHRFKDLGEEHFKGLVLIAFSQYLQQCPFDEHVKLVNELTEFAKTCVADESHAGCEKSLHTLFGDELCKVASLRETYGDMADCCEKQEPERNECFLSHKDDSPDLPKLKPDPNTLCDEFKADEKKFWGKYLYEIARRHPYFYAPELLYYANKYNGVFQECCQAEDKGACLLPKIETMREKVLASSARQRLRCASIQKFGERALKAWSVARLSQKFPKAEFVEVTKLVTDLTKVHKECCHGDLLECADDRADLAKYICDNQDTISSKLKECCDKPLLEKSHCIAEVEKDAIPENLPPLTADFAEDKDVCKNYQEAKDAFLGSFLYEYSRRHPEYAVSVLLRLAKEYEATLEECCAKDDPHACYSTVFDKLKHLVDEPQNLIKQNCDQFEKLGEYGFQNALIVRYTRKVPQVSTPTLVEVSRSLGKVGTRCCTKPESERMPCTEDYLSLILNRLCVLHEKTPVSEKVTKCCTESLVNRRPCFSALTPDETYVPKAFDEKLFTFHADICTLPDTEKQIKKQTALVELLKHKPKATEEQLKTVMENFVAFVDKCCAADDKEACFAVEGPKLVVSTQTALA

| Kd [1] [nM] | koff [1] [s⁻¹] | kon [1] [M⁻¹ s⁻¹] | binding result (BCMA (ACRO Biosystems)) | binding result [2] | binding result [3] | binding result [4] | binding result [5] | binding result (Gas6 (R&D)) | binding result (BSA (BOVOGEN)) | EC50 [6] [ng/mL] | internalization efficiency EC50 on human breast cancer MDA-MB-231 cells (flow cytometry, surface MFI at 4 C against 37 C) [7] [ng/mL] | internalization efficiency EC50 on human non-small cell lung cancer A549 cells (flow cytometry, surface MFI at 4 C against 37 C) [7] [ng/mL] | internalization efficiency EC50 on human pancreatic cancer MIA PaCa-2 cells (flow cytometry, surface MFI at 4 C against 37 C) [7] [ng/mL] | internalization efficiency EC50 on renal clear cell adenocarcinoma 786-O cells (flow cytometry, surface MFI at 4 C against 37 C) [7] [ng/mL] | EC50 [8] [ng/mL] | Binder |
| --- | --- | --- | --- | --- | --- | --- | --- | --- | --- | --- | --- | --- | --- | --- | --- | --- |
| 0.154 | 0.000402 | 2.61e+06 | no binding | no binding | no binding | no binding | no binding | no binding | no binding | 19.4 | 0.89 | 0.61 | 1.3 | 1.5 |  | C6G12 antibody (Chimeric 6G12) (antibody, human IgG1, kappa, V domains shown, 6G12 variable regions with a human IgG1 constant region, expressed in CHO-S cells and purified by Protein A; also called chimeric antibody) VH: QVQLKQSGPGLVKPSQSLSLTCSVTGFSISSGYYWNWIRQFPGNKLEWMGYRSYDGSNNYNPSLKNRISITRDTSKNQFFLKLNSVTTEDTATYYCARGWLLHYTMDYWGQGTSVTVSS VL: ELVMTQSPFSNAVTLGTSASISCRSSRSLLHSNGFTYLYWYLQKPGQSPQLLIYQMSNLASGVPDRFSSSGSGTDFTLRISRVEAEDVGVYYCGQNLELPLTFGAGTKLELKR |
|  |  |  |  |  |  |  |  |  |  |  |  |  |  |  | 669 | 6G12 antibody (antibody, V domains shown, also called monoclonal antibody 6G12) VH: QVQLKQSGPGLVKPSQSLSLTCSVTGFSISSGYYWNWIRQFPGNKLEWMGYRSYDGSNNYNPSLKNRISITRDTSKNQFFLKLNSVTTEDTATYYCARGWLLHYTMDYWGQGTSVTVSS VL: ELVMTQSPFSNAVTLGTSASISCRSSRSLLHSNGFTYLYWYLQKPGQSPQLLIYQMSNLASGVPDRFSSSGSGTDFTLRISRVEAEDVGVYYCGQNLELPLTFGAGTKLELK |
